Square brackets hold non-standard residues; d marks the D form. Ends that are not written are not given here. * marks the point of attachment. Biotin = O=C1N[C@H]2[C@H](CS[C@H]2CCCCC(=O)*)N1; pS = N[C@@H](COP(=O)(O)O)C(=O)O

The target in test [1] is T1, PLM 20-mer RCKFNQQQRTGEPDEEEGTF (R41–F60), on membrane (mouse, covalently linked to the membrane).
T1 peptide: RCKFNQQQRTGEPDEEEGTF
The test is described as follows: peptide or protein array.

The target in test [2] is T2, native NCX1(301–320) peptide synthesized on membrane (rat, covalently linked to the membrane).
T2 peptide: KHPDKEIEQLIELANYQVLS
The test is described as follows: peptide or protein array.

For Biotin-KQRGMIIEHEGDRPASKTEI [biotin–NCX1(235–254)], in test [1], the binding result is recorded as “binds”.

As to Biotin-ARILKELKQKHPDKEIEQLI [biotin–NCX1(292–311)], the binding result in test [1] is reported as “binds”.

In the case of Biotin-KRCRCKFNQQQRTGEPDEEEGTFRSSIRRL[pS]SRRR (cysteine pairing not given here) [biotin–pSer68-PLMcyt], in test [2], the binding result was “binds”.

With Biotin-KHPDKEIEQLIELANYQVLS [biotin–NCX1(301–320)], the binding result in test [1] was “binds”.

These data come from PMC4964977 (Biochemical Journal, 2016).
